Experiment: soluble on expression in E. coli; label from the status in PepcDB or PDB records

Row | Sequence | soluble on expression in E. coli
1 | MNSASFLQSRLISRSFLVRRSLKRYSGLAKPYTFQQPTIYALSTPANQTSAIAIIRISGTHAKYIYNRLVDSSTVPPIRKAILRNIYSPSSCSVKPHDQKESKILLDTSLLLYFQAPYSFTGEDVLELHVHGGKAVVNSILKAIGSLHDRSSGKDIRFALPGDFSRRAFQNGKFDLTQLEGIKDLIDSETESQRRSALSSFNGDNKILFENWRETIIENMAQLTAIIDFADDNSQEIQNTDEIFHNVEKNIICLRDQIVTFMQKVEKSTILQNGIKLVLLGAPNVGKSSLVNSLTNDDISIVSDIPGTTRDSIDAMINVNGYKVIICDTAGIREKSSDKIEMLGIDRAKKKSVQSDLCLFIVDPTDLSKLLPEDILAHLSSKTFGNKRIIIVVNKSDLVSDDEMTKVLNKLQTRLGSKYPILSVSCKTKEGIESLISTLTSNFESLSQSSADASPVIVSKRVSEILKNDVLYGLEEFFKSKDFHNDIVLATENLRYASDGIAKITGQAIGIEEILDSVFSKFCIGK | not soluble
2 | MGSDKIHHHHHHMSRIENQFTVQFWGVRGSIPSPGPHTVRYGGNTPCISMQAGDKRLVFDAGTGLHVLGQSWLRQMPLEGHIFFTHSHWDHMQGFPFFTPGFVKGNDFHIYGAIAPDGSTIEQRLNDQMLHPNFPVPLQIMQANLKFYDIRPGQPIHIDDVTVETAPLNHPGEAVGYRVNWRGGAVAYITDTEHFPDRLDDNVLWLARNADILVYDSTYTDEEYHSPKTPKIGWGHSTWQEAVKVAQAANVKTLVIYHHDPAHNDDFLDCVGQQASEKFPGAIMAREGMVLQIPTSVALSESFPVSKFST | not soluble
3 | AEVEHYEPLQVHVQLEKVYLDGDVSIEHKHEKVFSMDDFWAAYAGWTLVEQKKGYVLFRKQMDDISPLSKVNGYIGVSDNGVISTFHGRPEPASEPIQSFFQIDLERLESHMQKNLLKGIPFRTKAEFEDVIEHMKTYSG | soluble
4 | GPGSMRTQTFPQQPRAPGMLPHLSNGAAAPAAPQVPAVQEHTDVVHDTQFDYYGLQLATASSDRTIGIHVARAGAPLNRVATLTGHEGPVWMVSWAHPRFGNLLASASYDQKAIIWKEIRQGAPKWTPVHVIDIHHGSVNAVQWAPEEYGPVVATASSDGTVAITAYRDGCWQPSVKLSNNSNQIAHAMGATSVTFAPFKSELADHVVVASGGCDGHVRLWVSASSPERGLGFELHQVIEAHADWVRDVAFCPTSPASRFVILASCGQDKTVVMYRKPWDQLCAETSEGVSQATEWERSVIEFAEPVWRLSWAPSGEMLVVTNAKSEVFVLREGVDFTEPWIKLPLKDFQQ | not soluble
5 | MSLFYANMKEFELIKLVERLFGDEDVITPAGKHDAAYVKIGNRLIVLTCDTVNEKSDFPPYMLPEEMGWMAIAVTLSDVAACGARPLYFLSSISLKSIEFFEDILLGIKRCADRFGVKVVGGDIDFSEITTIAGFAIGEARRHITRRGAKVGEGVFITDLPGKAQLCLEMLERGAKREELPYAEKLYTPVPRIEEGMRIARYASAMTDVSDSLAVSLHQISQSSNVKIVLDNIVLSHLSPAENALELFLYGGGDFELVYTAKSSDDGIRIGRVERGKGVFAEIDGKTFEVEFRGYSHFEGHHHHHH | soluble
6 | MGSDKIHHHHHHMILKFLNETLPWVRKPSRYIGREINSVVKDPEEISLRIALVFPDTYEVGTSNHGLEILYHILNEQPDVWAERSYLPWIDMIERMKEKDIPLYTMESYTPLYQMDAVGISLEYELSYTNVVEVLKLSKIPIFFWERKRRDPIVLGGGPCSSNPEPIYGFFDAILIGDGEEAILEIAQVLKETKGEERETIWKELSRIEGVYVPAFYEQKGRKIVPVSPEYPRTIKRRIVKDLNSQPVPVKKIVPNVESVHDRAVIEVARGCTRGCRFCHASVYYRPVRERSLENILENVEEMLKNTGYEEVSLLSLSTMDHTQIGEIVSELLKRYSEKKIAVSIPSTRMDRFGVEIAGRIASVRKTGLTFAPEAATQRLRNIINKNISEEDIFATLEAAKKSGWRRVKLYFMMGLPGETNEDLEEMVKLLERVKRLGFKEVSASVSVFVPKPHTPFQFARQISPEEAYEKIKTLKRAKRSARISYHDPRMSLLEGVFSRGDRKLLDLIVKAHELGALFDEWSEMFRFDLWEKAFDETGIDPNDYLREIDPSEDFPWDHIDMGVTKEFLKEEYRKALKGETTDDCRWNRCYLCGVCFRFGVKNVLFGGERG | not soluble
7 | MGSDKIHHHHHHMSESAESVDLIKLPVSKLTLGMFVSAIDKNDQGRLAIANAGQIKHKDAILKLTKNGIKYVWVDTERSAEHCGFKRKVSNDSQVKKSIVTREKQQEQAQVILTEAKDLIRKVLSETFEGKAIEVAPFEALADSMIESVLLDEDALKCMSALRTKDAYLLEHSVNVAFLLVTFGKYLKLDRSMLREMAVGGILHDIGKIKVDNKVLHKPGKLTPEEFEHMKLHQVYALEIMSETKGLSQISKDVCLMHHEKLDGRGYPRGLKGDEIPLHGRMSCIVDIFDALTATRCYKEAMSPAAAFKILLSLTPFHLDQQLVYDFIRCIGVYPVGSLVELSDGRVGIVWASKDRDALHPIVKCFYSLKAKRYTEVVIVDLLKSELHIERGVSPSSLDIDPTPFY | not soluble
8 | IKDWTWKMGGNISYNKNKVVTLPDNGQPKNRIGGQQIYTGRKVLDEAGNQVDEVIFVGGKQEGQEPGILVGYKAEGLYKDWKDIPGDLVVKTGNYQGKYQYGPKAYAALSDAEKAKALQIEPGDVKWKDINNDGTIDAFDQIVIGNTTPHWFGGFNTTLTWKGLTLYGRFDFALDYWIYDNTTPWFLGCMQGGYNTTTDVFNTWSEENPNAKYPRYVWADQLGTANYYRTSTMFAYKGNYLAIREISLSYSLPQNIARKFYCQKLDVSVTGQNLGYITSANVATPEVSSAGSGYALPRTLLFGINVTF | not soluble
9 | MGSDKIHHHHHHMAGCDDSFDIIVVGAGPVGLSFAASLAYSQLKLAVVEGQALERLASPAFDGREIALTHASIGILRELGAWDVISASDKSPLQGARVLNGSSPFALCFDSPGGSAEPLGVLVPNCQIRDALFKIIRLRGHARLLCGHSVVRATNSRQGAVITLSNGRQLSARLLVAADSRFSATRNLLGIGADINRLGNSMLICRVRHERPHHQIAIEWFDHHQTVAMLPLAPGVSSLLLTLPSNEADGLLALDDELFLRELTKRCRGRLGTMSLASQRYIYPLATTWAHRFRAPSFALIGDAAIGMHPVTAHGFNIGLGGQKQLARGIETAWRDRRDIADPDMLHRYESRLRLSAAPLYHATNILVGLYSSEHPAARLARHVGLRLGQHLPFVRHGIAAMLRR | not soluble
10 | MSLTTLTTALKAGPEAPAILHRCRELVAPALAEAVGGMHPWMREMADYALGRGAAGGAPAAHSQGKGVRQALAVLGAEAAGGPAEAGVPAAVAVELVHTFSLLHDDIMDGDAMRRGRPALWKAYGTGPAVLAGDALFALAVQTLTTASAPGAAHRLSAALGDLVRGQADDLLFAHRPWTGPEAVSVAEYEAMAEHKTGSLLGCALALGAHLAGAPEETAAVLDRTGRHLGVAFQIVDDLLGIWGDPAVTGKPVHGDLRQGKKTFPVLAALATPSGSALEGLLTARDDTAVVRAAAVVEQAGGRSAALREARRHLTVAHGLLASVQPAPRPAADLRTLLSALSRRTIEGHHHHHH | soluble
11 | MVVRTWRSMQERYNLIGSKCKTCGTVYFPARSVCPECRRKGELEDYKLNGKGKVYTYSVVYAAPKDFEKQSPYVIGIVELEEGTKITSQIDCEPEEVKIGMPVEATFRKIREDGCDGVISYGYKFVPTEQ | not soluble
12 | MGSDKIHHHHHHMLTRMMQATAAIQQSVDGYFAVPTSLLVPDARGGFSIYLKQERGFVLYAKEDEAFTMRHRMQLRAHGVTQVFVPAPQHPSFISHRERHFGRVLSDDSLPLPERARLFYETSTEIVKEVFEKKLPRTLKRETFDRILALVSEGISFLTLENSLKTVASLVAHDYHTYSHSLHVFVYSQALLQSYGFDEDSLVQFGLGAMLHDIGKTFLDAAILTKPAALTPDEREEVNRHPVFGVGACARMPLSQDAINCILFHHEKLDGSGYPCGLRGDEIPLPVRAITIADIYDALTSNRAYAPARNAFQVLRIMSSEMRDQLDLDMFRRFVLMLSGANVL | not soluble
13 | MAHHHHHHMADTHFFAEANVLDDPRETTNAYKEIKYDLLRIERSINTEVRKRIEANKNIQQLIEHTANDMINKVLNKITTKIENISFELDKIIKKCDELEKMVGQIRLTLPTKIQTEMMGLKREVSDFFILLNKYANNRKKRNNVLFSKMENMNAYVSNKIHSEVSFTEDDFLFFRRESAKLLASDSDDEQGFRDAFLQEVEEIRDALALTVKAREQSDDDIIQVGAVRCGGAVQRCDVMRWDETRWAYFR | not soluble
14 | MKVLTVFGTRPEAIKMAPLVHALAKDPFFEAKVCVTAQHREMLDQVLKLFSIVPDYDLNIMQPGQGLTEITCRILEGLKPILAEFKPDVVLVHGDTTTTLATSLAAFYQRIPVGHVEAGLRTGDLYSPWPEEANRTLTGHLAMYHFSPTETSRQNLLRENVADSRIFITGNTVIDALLWVRDQVMSSDKLRSELAANYPFIDPDKKMILVTGHRRESFGRGFEEICHALADIATTHQDIQIVYPVHLNPNVREPVNRILGHVKNVILIDPQEYLPFVWLMNHAWLILTDSGGIQEEAPSLGKPVLVMRDTTERPEAVTAGTVRLVGTDKQRIVEEVTRLLKDENEYQAMSRAHNPYGDGQACSRILEALKNNRISLGSHHHHHH | soluble
15 | MSLEKKVLATVGNTEITSDYIDEIIARYPAQQQAMLASDEGKRQVLEQAIAFELMSEFAKETGLDKTEEFKDQLNKFAKELLAQMVMKKTLSSVTVTDDEAKAFYEEHKENFVELETVTAKHILVASEEEAKKVEEEIASGSITFEDAANKYSSCPSKEQGGNLGSFSKGMMVPEFEEAAFNLELGVVSAPVKTQFGYHLIKVEDKTEAKTKAFEDVKEQVVNMLIQERQQKKYLELIKELREKYGVKLAEGHHHHHH | soluble
16 | MRKMNLIVAMDAEGGIGKNGVLPWRIKKDMQYFASVTKNVSDQSKRNAVLMGRKCWESIPVTRRPLAGRLNIVLSRQLPAQKSDDYIVVNSLEAAMKLLSEPPFVDSIETIWNIGGAEIYDLALRENLVDEIHLTRIFKNFEADVHLKSLDFSKMEKVQNAEVSSENSEIFEENGLKFEFCKWKVVENH | not soluble
17 | MYHDRRRTGFRQYETYMKQKQSADWQLDELLEELEALETQLNSSNGGDQLLLGVSGIPASSSRENVKSISTLPPPPPALSYHQTPQQPQLLHHHNNHLGYQNGIHQITSINSAASSCSSPDGDSAFGDSSSTESSNNRCRNSAFSSNDSCRDSLNTPSPTQVSPRNGELNAEEAKAQKIRQALEKMKEAKVTKIFVKFFVEDGEALQLLIDERWTVADTLKQLAEKNHIALMEDHCIVEEYPELYIKRVYEDHEKVVENIQMWVQDSPNKLYFMRRPDKYAFISRPELYLLTPKTSDHMEIPSGDQWTIDVKQKFVSEYFHREPVVPPEMEGFLYLKSDGRKSWKKHYFVLRPSGLYYAPKSKKPTTKDLTCLMNLHSNQVYTGIGWEKKYKSPTPWCISIKLTALQMKRSQFIKYICAEDEMTFKKWLVALRIAKNGAELLENYERACQIRRETLGPASSMSAASSSTAISEVPHSLSHHQRTPSVASSIQLSSHMMNNPTHPLSVNVRNQSPASFSVNSCQQSHPSRTSAKLEIQYDEQPTGTIKRAPLDVLRRVSRASTSSPTIPQEESDSDEEFPAPPPVASVMRMPPPVTPPKPCTPLTSKKAPPPPPKRSDTTKLQSASPMAPAKNDLEAALARRREKMATMECMGHHHHHHENLYFMGHHHHHHENLYFQSH | soluble
18 | MIILMSKPLSEKKTSNNISDLIYGLLKEDIFNFVLKPGQRFTETDLSERYEASRTPIRQALYRLEQEGFVHVHFRSGWEIRPLEFKYYQELFDLRMILEKEAVKRLCELEHPEQLPALIELKKMWLIAPVDYLTDTKTLVLQSEDFHCALVRAAGNQQIAKIHQEASEKIRIVLSLGAMKEFDIAHAYQDHGAILQCILNKDAEQAIHLAEHHVLESIHEVKNITLQMISAIH | not soluble
